Results as given in the supplement of paper PMC10724198.
± gives the standard deviation of the averaged measurements.

Key:
Saccharomyces cerevisiae [1] = test: protein stability index of tFT-peptide fusion (C-terminal peptide) (PSI (0-1 scale)); higher = more stable (slower turnover)
Description: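 MPS profiling in S. cerevisiae of the tFT-X12 degron library: putative degron peptides plus stable controls, 12 aa, fused to the C-terminus of a sfGFP-mCherry timer. Cells are FACS-sorted into 8 mCherry/sfGFP bins and deep-sequenced. PSI runs from 0 (unstable) to 1 (stable). Backgrounds are wild type, das1Δ and doa10Δ at 30 °C, and wild type, das1Δ, cdc34-1 and cdc53-1 at 37 °C; 2-3 technical replicates each.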

Saccharomyces cerevisiae [2] = test: as above; conditions: genetic background: wild type; temperature: 30 C
[3] = genetic background: cdc34-1, temperature: 37 C
[4] = genetic background: cdc53-1, temperature: 37 C
[5] = genetic background: das1 deletion, temperature: 30 C
[6] = genetic background: das1 deletion, temperature: 37 C
[7] = genetic background: doa10 deletion, temperature: 30 C
[8] = genetic background: wild type, temperature: 30 C
[9] = genetic background: wild type, temperature: 37 C
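Note: PSI is a weighted mean of sequencing reads over stability bins, variants kept only with over 10 reads, mCherry proximal and sfGFP distal, peptide attached via GGGS linker.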

Sequence	protein stability index (Saccharomyces cerevisiae [1]; [3])	protein stability index (Saccharomyces cerevisiae [1]; [4])	protein stability index (Saccharomyces cerevisiae [1]; [5])	protein stability index (Saccharomyces cerevisiae [1]; [6])	protein stability index (Saccharomyces cerevisiae [1]; [7])	protein stability index (Saccharomyces cerevisiae [1]; [8])	protein stability index (Saccharomyces cerevisiae [1]; [9])	protein stability index (Saccharomyces cerevisiae [2])
FVFCGVVFLFLL	0.399 ± 0.033	0.467 ± 0.0057	0.395 ± 0.058	0.519 ± 0.018	0.347 ± 0.0093	0.326 ± 0.018	0.462 ± 0.0044	0.351 ± 0.086
FVFIFIRVFFFR	0.174 ± 0.0037	0.207 ± 0.024	0.189 ± 0.044	0.308 ± 0.017	0.171 ± 0.0012	0.176 ± 0.011	0.2451 ± 0.0022	0.269 ± 0.011
FVFLVLGPYAMF	0.444 ± 0.032	0.512 ± 0.013	0.354 ± 0.028	0.609 ± 0.048	0.346 ± 0.013	0.341 ± 0.01	0.556 ± 0.019	0.415 ± 0.0026
FVGVLVLCVCRC	0.0544 ± 0.0064	0.137 ± 0.015	0.17 ± 0.029	0.247 ± 0.021	0.116 ± 0.025	0.155 ± 0.025	0.21 ± 0.014	0.278 ± 0.024
FVLFCWFFCIVW	0.293 ± 0.019	0.326 ± 0.029	0.263 ± 0.011	0.3625 ± 0.00095	0.286 ± 0.032	0.226 ± 0.033	0.342 ± 0.012	0.273 ± 0.043
FVSFFRWLLVSI	0.267 ± 0.016	0.201 ± 0.04	0.358 ± 0.039	0.4432 ± 0.0011	0.211 ± 0.017	0.163 ± 0.015	0.218 ± 0.0089	0.152 ± 0.028
FYAAILCLLFSC	0.478 ± 0.037	0.512 ± 0.014	0.45 ± 0.035	0.546 ± 0.013	0.22913 ± 0.00013	0.265 ± 0.021	0.385 ± 0.0066	0.341 ± 0.012
GCDVWCLVLRMG	0.651 ± 0.016	0.68429 ± 0.00024	0.517 ± 0.0083	0.676 ± 0.031	0.418 ± 0.013	0.435 ± 0.019	0.63 ± 0.025	0.47 ± 0.018
GCFVDRVYVVVV	0.52605 ± 0.00036	0.543 ± 0.043	0.381 ± 0.026	0.546 ± 0.016	0.366 ± 0.014	0.387 ± 0.022	0.522 ± 0.0064	0.4763 ± 0.00091
GCLFASWPLAVC	0.104 ± 0.026	0.109 ± 0.0041	0.214 ± 0.022	0.2564 ± 0.0019	0.166 ± 0.008	0.198 ± 0.016	0.209 ± 0.0077	0.303 ± 0.043
GCSVSLCCVFVV	0.489 ± 0.016	0.503 ± 0.021	0.36 ± 0.028	0.525 ± 0.01	0.2589 ± 0.0012	0.282 ± 0.025	0.433 ± 0.0093	0.372 ± 0.022
GCVGLSFCVWVG	0.382 ± 0.011	0.502 ± 0.02	0.323 ± 0.031	0.523 ± 0.026	0.175 ± 0.015	0.211 ± 0.018	0.3965 ± 0.0014	0.314 ± 0.023
GDSVRVIIFCLN	0.465 ± 0.041	0.707 ± 0.086	0.339 ± 0.054	0.686 ± 0.068	0.119 ± 0.02	0.136 ± 0.027	0.1273 ± 0.00068	0.304 ± 0.081
GEVLWAVLLVSC	0.1782 ± 0.00065	0.208 ± 0.016	0.215 ± 0.029	0.343 ± 0.0077	0.164 ± 0.023	0.198 ± 0.038	0.3 ± 0.0077	0.299 ± 0.0047
GFFCFLYFVVMF	0.148 ± 0.0033	0.1695 ± 0.0013	0.18 ± 0.026	0.296 ± 0.013	0.2127 ± 0.0014	0.187 ± 0.018	0.277 ± 0.0028	0.226 ± 0.021
GFIRVRHLRSLC	0.55 ± 0.0029	0.658 ± 0.024	0.645 ± 0.019	0.7128 ± 0.0023	0.121 ± 0.019	0.138 ± 0.015	0.194 ± 0.026	0.234 ± 0.026
GFSFFFIFWFFF	0.394 ± 0.014	0.422 ± 0.011	0.35 ± 0.018	0.503 ± 0.034	0.378 ± 0.034	0.339 ± 0.027	0.436 ± 0.033	0.348 ± 0.022
GFVCFIHLFLCF	0.3496 ± 0.0027	0.365 ± 0.011	0.334 ± 0.027	0.425 ± 0.027	0.471 ± 0.045	0.316 ± 0.0089	0.367 ± 0.0056	0.407 ± 0.04
GFVVYLLLSYLF	0.34 ± 0.016	0.413 ± 0.035	0.279 ± 0.039	0.482 ± 0.016	0.256 ± 0.0032	0.28 ± 0.019	0.437 ± 0.024	0.333 ± 0.091
GGFHWCPSASRG	0.712 ± 0.01	0.755 ± 0.016	0.647 ± 0.031	0.7536 ± 0.0026	0.678 ± 0.02	0.6726 ± 0.0059	0.749 ± 0.014	0.711 ± 0.017
